Target: growth hormone receptor (GHR) (UniProt P10912)
UniProt P10912, sequence (P10912 19-638): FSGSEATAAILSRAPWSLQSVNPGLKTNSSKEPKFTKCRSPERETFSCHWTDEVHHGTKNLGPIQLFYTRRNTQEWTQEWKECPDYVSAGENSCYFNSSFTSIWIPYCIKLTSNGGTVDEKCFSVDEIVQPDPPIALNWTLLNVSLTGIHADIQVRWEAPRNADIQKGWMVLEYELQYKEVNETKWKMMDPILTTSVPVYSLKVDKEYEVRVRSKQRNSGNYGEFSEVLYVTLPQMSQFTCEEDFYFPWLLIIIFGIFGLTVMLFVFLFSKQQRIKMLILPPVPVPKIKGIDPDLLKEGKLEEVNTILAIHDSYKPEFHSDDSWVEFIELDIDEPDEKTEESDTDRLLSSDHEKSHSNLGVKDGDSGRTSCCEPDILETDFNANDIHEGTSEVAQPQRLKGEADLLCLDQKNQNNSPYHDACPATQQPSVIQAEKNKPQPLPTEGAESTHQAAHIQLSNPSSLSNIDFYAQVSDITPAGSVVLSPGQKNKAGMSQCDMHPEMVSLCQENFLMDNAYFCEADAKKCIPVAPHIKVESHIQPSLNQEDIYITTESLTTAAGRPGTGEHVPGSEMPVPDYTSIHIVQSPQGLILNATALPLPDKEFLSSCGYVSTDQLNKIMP

| Substance | bioactivity relative to the PEG-rhGH reference, reporter gene assay (luciferase, HepG2/IGF-1 cells) [%] |
| --- | --- |
| PEG-rhGH isomer P1 (PEGylated recombinant human growth hormone, modified at the N-terminus) (from UniProt P01241 27-217) (ligand) | 71.1 |
| PEG-rhGH isomer P2 (PEGylated recombinant human growth hormone, modified at K140) (from UniProt P01241 27-217) (ligand) | 163 |
| PEG-rhGH isomer P3 (PEGylated recombinant human growth hormone, modified at K145) (from UniProt P01241 27-217) (ligand) | 143 |
| PEG-rhGH isomer P4 (PEGylated recombinant human growth hormone, modified at K38) (from UniProt P01241 27-217) (ligand) | 29 |
| PEG-rhGH isomer P5 (PEGylated recombinant human growth hormone, modified at K158) (from UniProt P01241 27-217) (ligand) | 107 |

Reference: publication PMC11820146
